Data: patent publication US10808017B2, “Ubiquitin variants and uses therof as 53BP1 inhibitors” (The Governing Council of the University of Toronto, priority 2016, dated 2020)
Values joined by “and” are separate entries in the source; they are usually repeats but may differ in a detail not shown here. Equal values may be shown once.

Legend:
Format in all cases: binding
[1] = target: T1, GSPT1 (Homo sapiens, UniProt P15170); assay: Flag IP-MS of i53/i53-DM baits: prey GSPT1; settings: 293T Flp-In/T-Rex extracts, LC-MS/MS, one column per replicate IP
T1 construct: endogenous in cells; host or cells: HEK293 Flp-In/T-REx
T1 sequence (P15170 whole entry): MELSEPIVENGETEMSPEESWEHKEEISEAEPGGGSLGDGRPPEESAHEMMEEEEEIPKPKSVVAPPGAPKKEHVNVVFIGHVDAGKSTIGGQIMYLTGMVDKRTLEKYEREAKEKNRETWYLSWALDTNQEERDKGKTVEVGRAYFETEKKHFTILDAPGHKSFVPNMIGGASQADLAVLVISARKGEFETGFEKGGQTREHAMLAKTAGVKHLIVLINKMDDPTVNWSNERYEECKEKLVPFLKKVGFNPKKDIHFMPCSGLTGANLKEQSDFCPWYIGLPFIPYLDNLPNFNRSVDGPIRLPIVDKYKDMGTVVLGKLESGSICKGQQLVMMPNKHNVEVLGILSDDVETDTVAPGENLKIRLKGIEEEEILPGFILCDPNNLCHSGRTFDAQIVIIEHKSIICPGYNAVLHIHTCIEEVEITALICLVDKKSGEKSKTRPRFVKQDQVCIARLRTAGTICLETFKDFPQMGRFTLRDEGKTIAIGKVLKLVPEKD
Description: (§1) Following immunoprecipitation of Flag-tagged i53 and i-53-DM from HEK293 Flp-In/T-REx cells, peptides were identified using LC-MS/MS. Proteins were digested in solution with trypsin (Sigma, T7575-1KT) and dried to completeness. For LC-MS/MS analysis, peptides were reconstituted in 5% formic acid and loaded onto a 12-15 cm fused silica column with pulled tip packed in-house with 3.5 μm Zorbax C18 (Agilent Technologies, Calif., USA).
(§2) i53 and i53-DM precipitates were analyzed using an LTQ (Thermo Scientific) coupled to an Agilent 1100 Series HPLC (Agilent Technologies). Peptides were eluted from the column using a 90 min period cycle with a linear gradient from 0% to 40% ACN in 0.1% formic acid. Tandem MS spectra were acquired in a data-dependent mode for the top 5 (LTQ) most abundant ions using collision-induced dissociation. Acquired spectra were searched against the human Refseq_V53 database using Mascot (Matrix Science).
(§3) 293T Flp-In/T-Rex cell lines were generated that expressed Flag-tagged i53 or i53-DM under the control of a tetracycline-inducible promoter as previously described. Nine IP-MS experiments were analyzed (3 biological replicate IPs each for control i53- and i53-DM expressing cell lines). The interacting proteins were identified by MASCOT to identify high-confidence interactors for i53. […]

[2] = target: T2, CFL1 (Homo sapiens, UniProt P23528); assay: Flag IP-MS of i53/i53-DM baits: prey CFL1; settings: 293T Flp-In/T-Rex extracts, LC-MS/MS, one column per replicate IP
T2 construct: endogenous in cells; host or cells: HEK293 Flp-In/T-REx
T2 sequence (P23528 whole entry): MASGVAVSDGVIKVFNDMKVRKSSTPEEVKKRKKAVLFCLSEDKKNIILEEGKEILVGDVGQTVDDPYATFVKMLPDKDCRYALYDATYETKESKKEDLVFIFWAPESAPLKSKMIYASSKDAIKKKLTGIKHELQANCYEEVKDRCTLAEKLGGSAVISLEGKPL
Description: as §1, §2, §3

[3] = target: T3, CAPZA2 (Homo sapiens, UniProt P47755); assay: Flag IP-MS of i53/i53-DM baits: prey CAPZA2; settings: 293T Flp-In/T-Rex extracts, LC-MS/MS, one column per replicate IP
T3 construct: endogenous in cells; host or cells: HEK293 Flp-In/T-REx
Description: as §1, §2, §3

[4] = target: T4, 53BP1 (Homo sapiens, UniProt Q12888); assay: Flag co-immunoprecipitation from 293T cells; settings: Flag IP from transfected 293T cell extracts, immunoblot
T4 construct: endogenous in cells; host or cells: 293T
Description: FIG. 3. The i53 protein inhibits 53BP1. FIG. 3A-B, U2OS cells were transfected with vectors expressing i53, its 53BP1-binding deficient mutant (DM) or an empty vector (EV) control. Cells were then X-irradiated with a 10 Gy dose and processed for immunofluorescence with the indicated antibodies 1 h post-irradiation (IR). DAPI staining (not shown) was used to delineate the outline (dashed lines) of the cell nuclei. The region in the magnified inset is indicated with a square. Quantitation of the experiment is shown in panel (a) and data is indicated as the mean±s.e.m (N=3), whereas in (b) representative micrographs are shown. Arrowheads indicate Flag-positive cells. FIG. 3C, Parental or 53BP1ΔU2OS cells transfected with vectors expressing i53, the DM mutant or an empty vector (EV) control were irradiated (10 Gy) 1 h before being processed for immunofluorescence. Cell cycle stage was assessed by Cyclin A staining. The data is presented as the mean±s.e.m.; N=3. FIG. 3D, Immunoprecipitation (IP) of Flag-tagged proteins from extracts prepared from 293T cells transfected with vectors expressing Flag-i53 or the i53-DM mutant. Proteins were separated by SDS-PAGE and immunoblotted (IB) for Flag and 53BP1.
293T cells were transfected with 10 μg of pcDNA3-Flag-i53-derived plasmids using polyethylenimine (PEI). […]

[5] = target: T5, RPL8 (Homo sapiens, UniProt P62917); assay: Flag IP-MS of i53/i53-DM baits: prey RPL8; settings: 293T Flp-In/T-Rex extracts, LC-MS/MS, one column per replicate IP
T5 construct: Following immunoprecipitation of Flag-tagged i53 and i-53-DM from HEK293 Flp-In/T-REx cells, peptides were identified using LC-MS/MS; endogenous in cells; host or cells: HEK293 Flp-In/T-REx cells
Description: as §1, §2, §3

[6] = target: T6, RERGL (Homo sapiens, UniProt Q9H628); assay: Flag IP-MS of i53/i53-DM baits: prey RERGL; settings: 293T Flp-In/T-Rex extracts, LC-MS/MS, one column per replicate IP
T6 construct: endogenous in cells; host or cells: HEK293 Flp-In/T-REx cells
T6 sequence (Q9H628 1-204): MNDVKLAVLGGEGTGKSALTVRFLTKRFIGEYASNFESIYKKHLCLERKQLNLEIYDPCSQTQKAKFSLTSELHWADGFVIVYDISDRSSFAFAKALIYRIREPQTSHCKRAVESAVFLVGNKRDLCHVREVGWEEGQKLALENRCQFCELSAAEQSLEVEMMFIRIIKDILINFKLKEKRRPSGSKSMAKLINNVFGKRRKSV
Description: as §1, §2, §3

[7] = target: T7, MYCBP (Homo sapiens, UniProt Q99417); assay: Flag IP-MS of i53/i53-DM baits: prey MYCBP; settings: 293T Flp-In/T-Rex extracts, LC-MS/MS, one column per replicate IP, listed as Flag-i53-DM
T7 construct: endogenous in cells; host or cells: HEK293 Flp-In/T-REx
T7 sequence (Q99417 1-103): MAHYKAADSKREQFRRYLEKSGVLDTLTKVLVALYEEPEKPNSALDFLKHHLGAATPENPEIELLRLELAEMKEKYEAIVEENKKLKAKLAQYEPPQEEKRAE
Description: as §1, §2, §3

[8] = target: T8, VPS13C (Homo sapiens, UniProt Q709C8); assay: Flag IP-MS of i53/i53-DM baits: prey VPS13C; settings: 293T Flp-In/T-Rex extracts, LC-MS/MS, one column per replicate IP
T8 construct: endogenous in cells; host or cells: HEK293 Flp-In/T-REx cells
T8 sequence (Q709C8 whole entry): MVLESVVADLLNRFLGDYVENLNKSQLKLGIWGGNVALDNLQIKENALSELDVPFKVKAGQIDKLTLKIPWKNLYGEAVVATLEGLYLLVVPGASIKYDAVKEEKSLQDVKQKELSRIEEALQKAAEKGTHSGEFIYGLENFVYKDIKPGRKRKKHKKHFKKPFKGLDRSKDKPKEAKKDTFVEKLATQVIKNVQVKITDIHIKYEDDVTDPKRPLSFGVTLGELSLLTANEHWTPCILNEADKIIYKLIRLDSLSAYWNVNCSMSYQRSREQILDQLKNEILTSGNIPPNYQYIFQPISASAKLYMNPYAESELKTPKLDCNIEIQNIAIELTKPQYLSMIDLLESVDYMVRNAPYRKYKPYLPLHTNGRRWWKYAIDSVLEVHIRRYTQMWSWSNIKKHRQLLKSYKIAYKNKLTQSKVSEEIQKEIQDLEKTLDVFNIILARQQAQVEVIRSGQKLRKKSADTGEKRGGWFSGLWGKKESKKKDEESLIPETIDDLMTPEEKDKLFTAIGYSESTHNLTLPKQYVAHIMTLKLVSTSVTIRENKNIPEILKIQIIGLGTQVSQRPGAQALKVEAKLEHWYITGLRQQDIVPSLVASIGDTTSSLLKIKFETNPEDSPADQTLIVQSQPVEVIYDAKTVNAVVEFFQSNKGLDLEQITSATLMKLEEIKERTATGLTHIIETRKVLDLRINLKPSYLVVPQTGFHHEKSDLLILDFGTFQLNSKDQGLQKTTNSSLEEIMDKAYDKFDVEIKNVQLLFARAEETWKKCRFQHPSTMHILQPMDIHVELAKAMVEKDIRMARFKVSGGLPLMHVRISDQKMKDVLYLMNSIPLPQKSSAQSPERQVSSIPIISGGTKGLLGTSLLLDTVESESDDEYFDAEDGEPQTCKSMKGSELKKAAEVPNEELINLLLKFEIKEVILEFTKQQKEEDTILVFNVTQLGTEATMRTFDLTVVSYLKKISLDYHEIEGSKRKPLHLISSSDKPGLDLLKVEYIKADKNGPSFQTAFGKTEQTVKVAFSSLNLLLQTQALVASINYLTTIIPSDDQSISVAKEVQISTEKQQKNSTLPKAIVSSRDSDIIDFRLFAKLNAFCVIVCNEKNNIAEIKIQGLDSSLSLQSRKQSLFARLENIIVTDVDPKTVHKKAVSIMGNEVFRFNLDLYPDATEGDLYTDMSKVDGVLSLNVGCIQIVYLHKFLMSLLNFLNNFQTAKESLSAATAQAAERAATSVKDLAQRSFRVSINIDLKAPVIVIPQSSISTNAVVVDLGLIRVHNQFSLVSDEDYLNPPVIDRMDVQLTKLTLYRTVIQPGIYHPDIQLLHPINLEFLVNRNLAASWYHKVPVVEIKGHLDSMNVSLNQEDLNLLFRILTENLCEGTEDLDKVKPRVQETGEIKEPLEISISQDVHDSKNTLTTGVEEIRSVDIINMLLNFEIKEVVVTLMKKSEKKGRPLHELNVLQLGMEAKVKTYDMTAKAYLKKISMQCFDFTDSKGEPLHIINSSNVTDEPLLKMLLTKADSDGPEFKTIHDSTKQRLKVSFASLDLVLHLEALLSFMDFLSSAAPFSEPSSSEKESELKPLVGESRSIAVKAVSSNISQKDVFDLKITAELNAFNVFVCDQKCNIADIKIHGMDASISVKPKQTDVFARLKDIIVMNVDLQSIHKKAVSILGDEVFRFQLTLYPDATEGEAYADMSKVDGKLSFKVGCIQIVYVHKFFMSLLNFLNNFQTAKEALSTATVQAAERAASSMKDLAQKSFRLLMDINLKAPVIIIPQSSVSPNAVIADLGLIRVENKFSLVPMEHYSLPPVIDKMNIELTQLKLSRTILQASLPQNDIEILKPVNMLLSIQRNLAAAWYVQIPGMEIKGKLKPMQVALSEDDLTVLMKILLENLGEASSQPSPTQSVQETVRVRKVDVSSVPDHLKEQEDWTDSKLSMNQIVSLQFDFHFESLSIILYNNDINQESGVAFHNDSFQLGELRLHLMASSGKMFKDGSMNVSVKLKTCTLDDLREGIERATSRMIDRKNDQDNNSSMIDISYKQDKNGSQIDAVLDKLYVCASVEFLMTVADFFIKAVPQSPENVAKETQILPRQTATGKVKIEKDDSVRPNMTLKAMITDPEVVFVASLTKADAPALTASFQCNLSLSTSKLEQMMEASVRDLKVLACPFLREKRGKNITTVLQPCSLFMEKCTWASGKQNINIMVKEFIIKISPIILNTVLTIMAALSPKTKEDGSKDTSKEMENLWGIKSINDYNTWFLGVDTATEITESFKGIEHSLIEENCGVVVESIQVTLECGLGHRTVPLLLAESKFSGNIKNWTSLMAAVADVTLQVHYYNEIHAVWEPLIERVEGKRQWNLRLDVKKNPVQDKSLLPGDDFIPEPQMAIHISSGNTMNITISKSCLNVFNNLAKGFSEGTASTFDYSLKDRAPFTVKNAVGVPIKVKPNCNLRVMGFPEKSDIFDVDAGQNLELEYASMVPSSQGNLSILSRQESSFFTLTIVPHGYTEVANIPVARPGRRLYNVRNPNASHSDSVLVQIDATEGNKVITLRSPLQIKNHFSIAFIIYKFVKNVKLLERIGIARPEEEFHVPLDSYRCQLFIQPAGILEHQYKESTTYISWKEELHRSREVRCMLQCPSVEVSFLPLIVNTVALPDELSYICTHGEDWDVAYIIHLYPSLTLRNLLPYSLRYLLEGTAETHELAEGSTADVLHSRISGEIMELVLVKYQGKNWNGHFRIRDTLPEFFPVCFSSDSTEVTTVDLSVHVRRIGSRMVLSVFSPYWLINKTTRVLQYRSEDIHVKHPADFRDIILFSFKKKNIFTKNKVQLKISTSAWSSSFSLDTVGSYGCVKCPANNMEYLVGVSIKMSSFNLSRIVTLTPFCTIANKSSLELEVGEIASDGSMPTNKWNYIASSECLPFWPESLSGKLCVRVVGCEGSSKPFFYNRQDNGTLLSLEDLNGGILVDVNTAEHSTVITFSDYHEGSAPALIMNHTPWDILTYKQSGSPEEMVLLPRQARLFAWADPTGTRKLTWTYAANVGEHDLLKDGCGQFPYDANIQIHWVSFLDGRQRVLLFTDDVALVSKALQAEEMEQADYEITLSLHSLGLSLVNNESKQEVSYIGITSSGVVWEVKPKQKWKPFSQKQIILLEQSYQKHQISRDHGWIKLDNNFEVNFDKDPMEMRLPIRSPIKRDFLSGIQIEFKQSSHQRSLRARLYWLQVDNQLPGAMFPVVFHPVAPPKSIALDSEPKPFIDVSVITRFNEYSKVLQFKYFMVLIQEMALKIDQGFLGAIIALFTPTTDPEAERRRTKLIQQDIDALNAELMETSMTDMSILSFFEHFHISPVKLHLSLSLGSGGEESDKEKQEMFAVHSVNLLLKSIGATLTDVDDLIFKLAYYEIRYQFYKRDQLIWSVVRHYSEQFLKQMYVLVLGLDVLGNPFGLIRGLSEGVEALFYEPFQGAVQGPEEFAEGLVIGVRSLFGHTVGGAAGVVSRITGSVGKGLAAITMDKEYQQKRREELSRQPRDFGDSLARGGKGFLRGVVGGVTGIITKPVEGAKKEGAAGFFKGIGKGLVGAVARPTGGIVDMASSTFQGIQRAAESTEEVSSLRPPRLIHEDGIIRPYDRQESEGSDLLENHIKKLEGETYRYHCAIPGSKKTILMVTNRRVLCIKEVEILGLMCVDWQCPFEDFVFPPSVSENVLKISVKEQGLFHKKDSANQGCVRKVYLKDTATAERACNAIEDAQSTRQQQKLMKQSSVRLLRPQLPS
Description: as §1, §2, §3

[9] = target: T9, RPL29 (Homo sapiens, UniProt P47914); assay: Flag IP-MS of i53/i53-DM baits: prey RPL29; settings: 293T Flp-In/T-Rex extracts, LC-MS/MS, one column per replicate IP
T9 construct: endogenous in cells; host or cells: HEK293 Flp-In/T-REx cells
Description: as §1, §2, §3

Total peptides, GSPT1 [1] | Total peptides, CFL1 [2] | Total peptides, CAPZA2 [3] | Retrieval of 53BP1 in co-immunoprecipitation [4] | Total peptides, RPL8 [5] | Total peptides, RERGL [6] | Total peptides, MYCBP [7] | Total peptides, VPS13C [8] | Total peptides, RPL29 [9] | Substance
3 | 6 | 7 | efficiently retrieved 53BP1 |  |  |  |  |  | i53: UbvG08 with C-terminal di-glycine removed and I44A mutation; genetically encoded inhibitor of 53BP1
 |  |  |  | 5 | 2 | 7 and 5 | 5 | 3 | i53-DM: 53BP1-binding deficient mutant of i53 (P69L, L70V)
